The test system of the assay is intracellular proteome of ENR+CD and ENR organoids. The assay can be described thus: LC-MS/MS TMT proteomics of ENR+CD versus ENR organoids. It counts as cell-based, C57BL/6 mice. Conditions: for Average logFC: ENR+CD versus ENR organoids, sample pairs in aggregate (n=4, 2 technical replicates from two biological donors); for M1-1 Log2 Median Normalized / M1-2 Log2 Median Normalized / M2-1 Log2 Median Normalized / M2-2 Log2 Median Normalized: protein abundance ratio ENR+CD versus ENR organoids, LC-MS/MS TMT proteomics; for M1-1 Log2 Median Normalized: sample pair M1-1; for M1-2 Log2 Median Normalized: sample pair M1-2; for M2-1 Log2 Median Normalized: sample pair M2-1; for M2-2 Log2 Median Normalized: sample pair M2-2; for change: up = enriched in ENR+CD, down = enriched in ENR, FDR<0.05 and log fold change cut-off.

Eight molecules from US11994512B2, “Single-cell genomic methods to generate ex vivo cell systems that recapitulate in vivo biology with improved fidelity” (Massachusetts Institute of Technology, priority 2018, dated 2024) can be followed below.

B1: Q8K354 (protein, UniProt Q8K354 1-277, looked up)
chain: MSSCSRVALVTGANKGIGFAITRDLCRKFSGDVVLTARDEARGRAAVQQLQAEGLSPRFHQLDIDDPQSIRALRDFLRKEYGGLNVLVNNAGIAFRMDDPTPFDIQAEVTLKTNFFATRNVCTELLPIMKPHGRVVNISSLQGLKALENCREDLQEKFRCDTLTEVDLVDLMKKFVEDTKNEVHEREGWPDSAYGVSKLGVTVLTRILARQLDEKRKADRILLNACCPGWVKTDMARDQGSRTVEEGAETPVYLALLPPDATEPHGQLVRDKVVQTW
modifications: full-length
Consider B1, for which the “Average logFC” value was −1.221, the “M1-1 Log2 Median Normalized” value was −1.154, the “M1-2 Log2 Median Normalized” value is on record as −1.435 and the “M2-1 Log2 Median Normalized” value is −1.8555. Besides, the “M2-2 Log2 Median Normalized” value is recorded as −0.441 and the change entry is reported as “down”.

B2: Q8VCT4 (protein, UniProt Q8VCT4 1-565, looked up)
chain: MGLYPLIWLSLAACTAWGYPSSPPVVNTVKGKVLGKYVNLEGFTQPVAVFLGVPFAKPPLGSLRFAPPQPAEPWSFVKNTTSYPPMCSQDAVGGQVLSELFTNRKENIPLQFSEDCLYLNIYTPADLTKNSRLPVMVWIHGGGLVVGGASTYDGLALSAHENVVVVTIQYRLGIWGFFSTGDEHSRGNWGHLDQVAALRWVQDNIANFGGNPGSVTIFGESAGGFSVSVLVLSPLAKNLFHRAISESGVSLTAALITTDVKPIAGLVATLSGCKTTTSAVMVHCLRQKTEDELLETSLKLNLFKLDLLGNPKESYPFLPTVIDGVVLPKAPEEILAEKSFSTVPYIVGINKQEFGWIIPTLMGYPLAEGKLDQKTANSLLWKSYPTLKISENMIPVVAEKYLGGTDDLTKKKDLFQDLMADVVFGVPSVIVSRSHRDAGASTYMYEFEYRPSFVSAMRPKAVIGDHGDEIFSVFGSPFLKDGASEEETNLSKMVMKFWANFARNGNPNGGGLPHWPEYDQKEGYLKIGASTQAAQRLKDKEVSFWAELRAKESAQRPSHREHVEL
modifications: full-length
As to B2, the “Average logFC” value is −1.924, the “M1-1 Log2 Median Normalized” value is reported as −1.923, the “M1-2 Log2 Median Normalized” value is listed as −1.965 and the “M2-1 Log2 Median Normalized” value is reported as −2.3285. Also, the “M2-2 Log2 Median Normalized” value is given as −1.001 and the change result was “down”.

B3: Q8VCI0 (protein, UniProt Q8VCI0 1-550, looked up)
chain: MCHRSPGRSLRPPSPLLLLLPLLLQPPWAAGAASQSDPTGVHCATAYWSPESKKVEIKTVLDKNGDAYGYYNDSIKTTGWGILEIRAGYGSQVLSNEIIMFLAGYLEGYLTALHMYDHFTNLYPQLIKNPSIVKKVQDFMEKQEMWTRQNIKAQKDDPFWRHTGYVVTQLDGLYLGAQKRASEEKIKPMTMFQIQFLNAVGDLLDLIPSLSPTKSSSMMKFKIWEMGHCSALIKVLPGFENIYFAHSSWYTYAAMLRIYKHWDFNIKDKYTLSKRLSFSSYPGFLESLDDFYILSSGLILLQTTNSVYNKTLLKQVVPKTLLAWQRVRVANMMAEGGKEWAQIFSKHNSGTYNNQYMVLDLKKVTINRSLDKGTLYIVEQIPTYVEYSDQTNVLRKGYWASYNIPFHKTIYNWSGYPLLVHKLGLDYSYDLAPRAKIFRRDQGNVTDMASMKYIMRYNNYKEDPYSKGDPCSTICCREDLNGASPSPGGCYDTKVADIFLASQYKAYAISGPTVQDGLPPFNWNRFNETLHRGMPEVFDFNFVTMKPILS
modifications: full-length
B3: the “Average logFC” value was −1.188, the “M1-1 Log2 Median Normalized” value is −1.187, the “M1-2 Log2 Median Normalized” value is recorded as −1.193 and the “M2-1 Log2 Median Normalized” value is −1.4105. Besides, the “M2-2 Log2 Median Normalized” value is recorded as −0.754 and the change entry is listed as “down”.

B4: Q8K023 (protein, UniProt Q8K023 1-323, looked up)
chain: MNSKIQKIELNDGHSIPVLGFGTYATEEHLKKKSMESTKIAIDVGFCHIDCSHLYQNEEEIGQAILSKIEDGTVKREDIFYTSKLWSTSHRPELVRPSLENSLRKLNLDYVDLYLIHFPVSLKPGNELLPKDEHGNLIFDTVDLCDTWEAMEKCKDAGLAKSIGVSNFNRRQLEMILNKPGLKYKPVCNQVECHLYLNQSKLLAYCKMNDIVLVAYGALGTQRYKYCINEDTPVLLDDPVLCAMAKKYKRTPALIALRYQLDRGIVALAKSFNEERIRENMQVFDFQLASDDMKILDGLDRNLRYFPADMFKAHPNFPFFDEY
modifications: full-length
As for B4, the “Average logFC” value is −1.451, the “M1-1 Log2 Median Normalized” value is recorded as −1.063, the “M1-2 Log2 Median Normalized” value is −0.99 and the “M2-1 Log2 Median Normalized” value is recorded as −1.9945. The “M2-2 Log2 Median Normalized” value was −1.758 and the change result is “down”.

B5: Q8K4R4 (protein, UniProt Q8K4R4 1-332, looked up)
chain: MLLKEYRICMPLTVDEYKIGQLYMISKHSHEQSDRGEGVEVVQNEPFEDPHHGNGQFTEKRVYLNSKLPSWARAVVPKIFYVTEKAWNYYPYTITEYTCSFLPKFSIHIETKYEDNKGSNDSIFDSEAKDLEREVCFIDIACDEIPERYYKESEDPKHFKSEKTGRGQLREGWRDNHQPIMCSYKLVTVKFEVWGLQTRVEQFVHKVVRDILLIGHRQAFAWVDEWYDMTMDEVREFERATQEATNKKIGVFPPAISISSIALLPSSVRSAPSSAPSTPLSTDAPEFLSIPKDRPRKKSAPETLTLPDPEKKATLNLPGVYTSEKPCRPKSE
modifications: full-length
B5: the “Average logFC” value came out at 1.235, the “M1-1 Log2 Median Normalized” value is given as 1.072, the “M1-2 Log2 Median Normalized” value is 0.913 and the “M2-1 Log2 Median Normalized” value is 1.6335. Moreover, the “M2-2 Log2 Median Normalized” value worked out at 1.321 and the change entry is “up”.

B6: Q8R550 (protein, UniProt Q8R550 1-709, looked up)
chain: MVEAIVEFDYQAQHDDELTISVGEVITNIRKEDGGWWEGQINGRRGLFPDNFVREIKKDMKKDLLSNKAPEKPMHDVSSGNALLSSETILRTNKRGERRRRRCQVAFSYLPQNDDELELKVGDIIEVVGEVEEGWWEGVLNGKTGMFPSNFIKELSGESDELGISQDEQLSKSRPEGFLPASLLPFPAHGAKGKTTFEGTILYRAAPGKTEGHRRYYSLRETTGSESDGGDSSSTKSEGANGTMATAAIQPKKVKGVGFGDIFKDKPIKLRPRSIEVENDFLPVEKTIGKKLPPATSTPDPSKTEMDSRTKTKDYCKVIFPYEAQNDDELTIKEGDIVTLINKDCIDVGWWEGELNGRRGVFPDNFVKLLPSDFDKEGNRPKKPPPPSAPVVKQGAGTTERKHEIKKIPPERPETLPNRTEEKERPEREPKLDLQKPSVPAIPPKKPRPPKTNSLNRPGALPPRRPERPVGPLTHTRGDSPKIDLAGSALSGILDKDLSDRSNDIDLEGFDSVISSTEKLSHPTTSRPKATGRRPPSQSLTSSSLSSPDIFDSPSPEEDKEEHISLAHRGIDVSKKTSKTVTISQVSDNKTSLPPKPGTMAAASSGPASLSSVASSPMSSSLGTAGQRASSPSLFSTEGKPKMEPAVSSQAAIEELKMQVRELRTIIETMKDQQKREIKQLLSELDEEKKIRLRLQMEVNDIKKALQSK
modifications: full-length
As to B6, the “Average logFC” value is reported as 1.492, the “M1-1 Log2 Median Normalized” value turned out to be 1.738, the “M1-2 Log2 Median Normalized” value worked out at 1.082 and the “M2-1 Log2 Median Normalized” value is given as 1.8435. Also, the “M2-2 Log2 Median Normalized” value stood at 1.303 and the change result is on record as “up”.

B7: Q8K4B2 (protein, UniProt Q8K4B2 1-609, looked up)
chain: MAGRCGARGALSPQLLLFDLPPALLGELCGILDSCDGPLGWRGLAERLSNSWLDVRHIEKYVNQGKSGTRELLWSWAQKNKTIGDLLEVLQDMGHQRAIHLIINYGVSWTPSVQTHHELPFPSFPPEVKHACRENDPGPLEPANVTVDNVLVPEHNEKGTLQKTPISFQSILEGTKHFHKDFLIGEGEIFEVYRVDIRNQAYAVKLFKQEKKMQLKKHWKRFLSELEVLLLFRHPHILELAAYFTETEKLCLVYPYMSNGTLFDRLQCTNGTTPLSWHVRISVLIGIAKAIQYLHNTQPCAVICGNVSSANILLDDQLQPKLTDFAAAHFRPNLEQQSSTINMTGGGRKHLWYMPEEYIRQGRLSVKTDVYSFGIVIMEVLTGCKVVLDDPKHVQLRDLLMELMEKRGLDSCLSFLDRKIPPCPRNFSAKLFSLAGRCVATKAKLRPTMDEVLSSLESTQPSLYFAEDPPTSLKSFRCPSPLFLDNVPSIPVEDDENQNNHSVPPKEVLGTDRVTQKTPFECSQSEVTFLGLDRNRGNRGSEADCNVPSSSHEECWSPELVAPSQDLSPTVISLGSSWEVPGHSYGSKPMEKRCSSGLFCSEHEQSKKQ
modifications: full-length
For the molecule B7, the “Average logFC” value was determined as 1.198, the “M1-1 Log2 Median Normalized” value was 1.448, the “M1-2 Log2 Median Normalized” value turned out to be 0.943 and the “M2-1 Log2 Median Normalized” value is on record as 1.1955. Besides, the “M2-2 Log2 Median Normalized” value is given as 1.204 and the change result is recorded as “up”.

B8: Q8CIV3 (protein, UniProt Q8CIV3 1-451, looked up)
chain: MLRLCFFISFMCLVKSDTDETCPSFTRLSFHSAVVGTGLSVRLMLYTQRDQTCAQIINSTALGSLNVTKKTTFIIHGFRPTGSPPVWIEELVQSLISVQEMNVVVVDWNRGATTVIYPHASSKTRQVASILKEFIDQMLVKGASLDNIYMIGVSLGAHIAGFVGESYEGKLGRVTGLDPAGPLFNGRPPEERLDPSDALFVDVIHSDTDALGYKEALGHIDFYPNGGLDQPGCPKTIFGGIKYFKCDHQMSVYLYLASLQNNCSITAYPCDSYRDYRNGKCVSCGAGQIVPCPRVGYYADSWKEYLWDRDPPMTKAFFDTAETKPYCMYHYFVDIVSWNKSVRRGFITIKLRGEDGNITESKIDHEPSAFEKYHQVSLLARFNRDLDKVAEISLLFSTGSVVGPKYKLRVLQMKLRSLAHPDRPHLCRYDLVLMENVETSFQPILCSQQQM
modifications: full-length
For the molecule B8, the “Average logFC” value is recorded as 1.179, the “M1-1 Log2 Median Normalized” value was 1.6, the “M1-2 Log2 Median Normalized” value is on record as 0.988 and the “M2-1 Log2 Median Normalized” value was 0.9025. Moreover, the “M2-2 Log2 Median Normalized” value worked out at 1.225 and the change result is given as “up”.
